Data set [1] has as its system mouse models of injury, Marfan's syndrome, and muscular dystrophy. To be noted: in vivo; cited from earlier work.
For data set [2] the following is noted: human, in vivo; cited from earlier work.
The next data set deals with human patients. To be noted: in vivo; cited from earlier work.
The test system of the next data set is non-diseased rat BAL. To be noted: cited from earlier work.
For data set [3], the system named is MBT2 tumors, intratumoral immune cells. The data set is described as follows: MBT2 tumor immune contexture (flow cytometry, IHC, qPCR). To be noted: mouse, in vivo. An excerpt: To study the immune effects of anti-PD-1 or AB6-mIgG1 treatment as single agents or in combination, MBT-2 tumors were harvested from mice 10 days after treatment initiation and then subjected to immunohistochemical and flow cytometry analyses of select immune cell markers. […] The relevance of this increase in Treg cells is unclear given the significant anti-tumor effects observed with combination treatment. […] This appears to be due to selective reduction in CD11b+CD206+ and CD11b+Gr1+ subpopulations, which correspond to immunosuppressive M2-like macrophages and myeloid-derived suppressor cells (MDSC), respectively. Collectively, the representation of these two populations of cells is reduced from an average of 47% of the CD45+ cell population to 14% after combination treatment (FIG. 34B).
Each study group contained 12 mice with MBT2 tumors as described herein. Ab6-treatment group received the antibody weekly, on day 1 and day 8, at 10 mg/kg. […]
Tumor-associated immune cell subsets were also analyzed by tumor flow cytometry in MBT-2 tumors. […] Flow cytometry was performed on a Attune NxT (ThermoFisher) and analyzed with FlowJo (BD Bioscience).
For immunohistochemical analysis, tumors from six animals were cut in halves and fixed. […] FIG. 36E provides the quantitation of the IHC data, shown as % of CD8-positive cells of total nuclei. […]
(In general: In flow cytometry, cells or beads pass a laser one at a time.)

Data set [4] concerns the target T1, recombinant human GARP-proTGFβ1 complex (Homo sapiens, UniProt P01137).
T1 construct: made in house
The data set is described as follows: Octet (Biolayer Interferometry) in vitro kinetic binding. To be noted: in M. The text has this: (§1) Biolayer Interferometry (BLI):BLI is a label-free technology for optically measuring biomolecular interactions, e.g., between a ligand immobilized on the biosensor tip surface and an analyte in solution. BLI provides the ability to monitor binding specificity, rates of association and dissociation, or concentration, with precision and accuracy. BLI platform instruments are commercially available, for example, from ForteBio and are commonly referred to as the Octet® System.
(§2) BLI-based binding assays are widely used in the art for measuring affinities and kinetics of antibodies to antigens. It is a label-free technology in which biomolecular interactions are analyzed on the basis of optical interference. One of the proteins, for example, an antibody being tested, can be immobilized on the biosensor tip. When the other protein in solution, for example, an antigen, becomes bound to the immobilized antibody, it causes a shift in the interference pattern, which can be measured in real-time. This allows the monitoring of binding specificity, rates of association and dissociation, as well as concentration dependency. […] Due to its ease of use and fast results, BLI-based assays such as the Octet® system (available from ForteBio/Molecular Devices, Fremont Calif.), are particularly convenient when used as an initial screening method to identify and separate a pool of “binders” from a pool of “non-binders” or “weak binders” in the screening process.
(§3) Table 8 below provides non-limiting examples of high-affinity, context-independent proTGFβ1 antibodies encompassed by the present invention. The table provides representative results from in vitro binding assays, as measured by Octet®.
(§4) Column (A) of the table lists monoclonal antibodies with discrete amino acid sequences. […] Columns (B), (D), (E) and (F) provide affinities of each of the listed antibodies, measured in KD. […] Average KD values of (B) and (C) are shown in the corresponding column (D), which collectively represents affinities of the antibodies to ECM- or matrix-associated proTGFβ1 complexes. Similarly, Average KD values of (E) and (F) are shown in the corresponding column (G), which collectively represents affinities of the antibodies to cell-surface or cell-associated proTGFβ1 complexes. Finally, relative ratios between the average KD values from columns (D) and (G) are expressed as “fold bias” in column (H). Thus, the greater the number of column (H) is, the greater bias exists for the particular antibody, when comparing binding preferences of the antibody for matrix-associated complexes and cell-surface complexes. This is one way of quantitatively representing and comparing inherent bias of antibodies to their target complexes. Such analyses may be useful in guiding the selection process for a candidate antibody for particular therapeutic use.
(§5) In some embodiments, the binding affinity of an antibody, or antigen binding portion thereof, to an antigen (e.g., protein complex), such as presenting molecule-proTGFβ1 complexes, is determined using an Octet assay. In some embodiments, an Octet assay is an assay that determines one or more a kinetic parameters indicative of binding between an antibody and antigen. In some embodiments, an Octet® system (ForteBio, Menlo Park, Calif.) is used to determine the binding affinity of an antibody, or antigen binding portion thereof, to presenting molecule-proTGFβ1 complexes. For example, binding affinities of antibodies may be determined using the fortéBio Octet QKe dip and read label free assay system utilizing bio-layer interferometry. In some embodiments, antigens are immobilized to biosensors (e.g., streptavidin-coated biosensors) and the antibodies and complexes (e.g., biotinylated presenting molecule-proTGFβ1 complexes) are presented in solution at high concentration ([…]) to measure binding interactions. […]
On the technique in general: Biolayer interferometry detects binding as a change in optical thickness at a sensor tip.

The target in data set [5] is T2, recombinant human LRRC33-proTGFβ1 complex (Homo sapiens, UniProt P01137).
T2 construct: made in house
T2 sequence (P01137 30-390): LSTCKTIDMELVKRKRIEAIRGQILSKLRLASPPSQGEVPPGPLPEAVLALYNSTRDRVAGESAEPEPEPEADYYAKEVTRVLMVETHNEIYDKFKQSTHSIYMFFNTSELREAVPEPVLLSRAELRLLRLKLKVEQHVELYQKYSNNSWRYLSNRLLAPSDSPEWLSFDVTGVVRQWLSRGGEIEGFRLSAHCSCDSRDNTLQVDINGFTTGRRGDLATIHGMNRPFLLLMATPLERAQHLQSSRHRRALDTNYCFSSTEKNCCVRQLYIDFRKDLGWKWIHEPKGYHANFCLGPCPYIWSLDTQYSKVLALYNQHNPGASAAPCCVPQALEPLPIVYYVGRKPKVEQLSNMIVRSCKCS
T2 sequence (Q86YC3 19-650 partner limits assumed): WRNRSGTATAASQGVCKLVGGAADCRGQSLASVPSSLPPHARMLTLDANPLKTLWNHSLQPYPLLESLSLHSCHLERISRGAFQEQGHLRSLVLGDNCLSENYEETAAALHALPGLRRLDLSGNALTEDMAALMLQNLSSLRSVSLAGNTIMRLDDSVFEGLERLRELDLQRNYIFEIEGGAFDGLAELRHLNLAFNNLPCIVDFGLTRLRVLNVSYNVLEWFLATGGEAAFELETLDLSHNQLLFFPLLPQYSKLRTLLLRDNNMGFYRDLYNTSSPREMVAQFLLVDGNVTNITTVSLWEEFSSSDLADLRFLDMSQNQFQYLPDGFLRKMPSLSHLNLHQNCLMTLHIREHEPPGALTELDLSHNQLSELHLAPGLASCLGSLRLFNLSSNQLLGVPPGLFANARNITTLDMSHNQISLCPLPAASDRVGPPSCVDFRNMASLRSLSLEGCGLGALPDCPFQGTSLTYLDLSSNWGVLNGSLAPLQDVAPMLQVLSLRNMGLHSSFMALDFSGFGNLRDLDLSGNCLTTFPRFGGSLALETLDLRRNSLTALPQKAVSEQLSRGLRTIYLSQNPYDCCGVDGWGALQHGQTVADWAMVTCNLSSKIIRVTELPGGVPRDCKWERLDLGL
The data set is described as above. The conditions noted are these: in M.
From the text: as §1, §2, §3, §4, §5

The target in data set [6] is T3, recombinant human LTBP1-proTGFβ1 complex (Homo sapiens, UniProt P01137).
T3 construct: made in house; host or cells: Expi293F cells, transient co-transfection
T3 sequence (P01137 30-390): as the sequence (P01137 30-390) above
T3 sequence (Q14766 873-1507 partner): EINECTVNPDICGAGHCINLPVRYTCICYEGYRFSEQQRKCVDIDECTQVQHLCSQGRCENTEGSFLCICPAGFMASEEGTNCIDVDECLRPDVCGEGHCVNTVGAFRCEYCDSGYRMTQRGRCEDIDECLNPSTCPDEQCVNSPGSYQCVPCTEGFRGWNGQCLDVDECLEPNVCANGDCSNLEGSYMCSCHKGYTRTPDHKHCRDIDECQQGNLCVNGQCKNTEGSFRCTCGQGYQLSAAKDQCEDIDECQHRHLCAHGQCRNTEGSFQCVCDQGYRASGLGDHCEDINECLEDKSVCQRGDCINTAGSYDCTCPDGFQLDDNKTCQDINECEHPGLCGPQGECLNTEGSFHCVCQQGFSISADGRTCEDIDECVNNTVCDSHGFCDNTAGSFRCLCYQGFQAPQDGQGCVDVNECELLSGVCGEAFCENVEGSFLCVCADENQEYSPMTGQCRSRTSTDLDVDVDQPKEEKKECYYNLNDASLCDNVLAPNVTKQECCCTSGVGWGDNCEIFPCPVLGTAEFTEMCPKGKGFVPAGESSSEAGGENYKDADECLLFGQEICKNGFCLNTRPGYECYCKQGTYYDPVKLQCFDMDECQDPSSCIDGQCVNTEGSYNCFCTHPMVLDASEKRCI
The data set is described as above. To be noted: in M.
From the text: as §1, §2, §3, §4, §5

Data set [7] deals with T4, recombinant human LTBP3-proTGFβ1 complex (Homo sapiens, UniProt P01137).
T4 construct: made in house; host or cells: Expi293F cells, transient co-transfection
T4 sequence (P01137 30-390): as the sequence (P01137 30-390) above
T4 sequence (Q9NS15 866-1039 partner limits assumed): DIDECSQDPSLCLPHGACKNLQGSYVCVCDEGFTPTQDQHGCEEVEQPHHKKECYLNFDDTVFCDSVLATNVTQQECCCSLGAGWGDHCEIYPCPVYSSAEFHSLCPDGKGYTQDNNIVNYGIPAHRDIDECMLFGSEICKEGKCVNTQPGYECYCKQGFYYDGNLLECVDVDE
Described as above. To be noted: in M.
From the text: as §1, §2, §3, §4, §5

Data set [8] concerns matrix-associated (LTBP1/LTBP3) and cell-associated (GARP/LRRC33) proTGFβ1 complexes. The data set is described as follows: Octet: average KD and fold bias, matrix- vs cell-associated complexes. The class given is binding, human. To be noted: for Kd: average KD of (E) and (F), cell-associated complexes, read-out: (G) Cell AVRG; for (H) G/D (fold bias): ratio of average KD cell-associated / matrix-associated. The text has this:
Column (A) of the table lists monoclonal antibodies with discrete amino acid sequences. […] Columns (B), (D), (E) and (F) provide affinities of each of the listed antibodies, measured in KD. […] Average KD values of (B) and (C) are shown in the corresponding column (D), which collectively represents affinities of the antibodies to ECM- or matrix-associated proTGFβ1 complexes. Similarly, Average KD values of (E) and (F) are shown in the corresponding column (G), which collectively represents affinities of the antibodies to cell-surface or cell-associated proTGFβ1 complexes. Finally, relative ratios between the average KD values from columns (D) and (G) are expressed as “fold bias” in column (H). […] This is one way of quantitatively representing and comparing inherent bias of antibodies to their target complexes.
Average KD values between the two matrix-associated and cell-associated complexes are calculated, respectively (see columns (D) and (G)). These average KD values can then be used to ask whether bias in binding activities exists between complexes associated with matrix vs. complexes associated with cell surface (e.g., immune cells). Bias may be expressed as “fold-difference” in the average KD values, as illustrated in Table 8.

Data set [9] has the same test system. Described as above. The class given is binding, human. The conditions noted are these: average KD of (B) and (C), read-out: (D) ECM AVRG.

Like-named read-outs stand apart in the source and are kept apart here.

T1 sequence (P01137 30-390): as the sequence (P01137 30-390) above
T1 sequence (Q14392 20-627 partner limits assumed): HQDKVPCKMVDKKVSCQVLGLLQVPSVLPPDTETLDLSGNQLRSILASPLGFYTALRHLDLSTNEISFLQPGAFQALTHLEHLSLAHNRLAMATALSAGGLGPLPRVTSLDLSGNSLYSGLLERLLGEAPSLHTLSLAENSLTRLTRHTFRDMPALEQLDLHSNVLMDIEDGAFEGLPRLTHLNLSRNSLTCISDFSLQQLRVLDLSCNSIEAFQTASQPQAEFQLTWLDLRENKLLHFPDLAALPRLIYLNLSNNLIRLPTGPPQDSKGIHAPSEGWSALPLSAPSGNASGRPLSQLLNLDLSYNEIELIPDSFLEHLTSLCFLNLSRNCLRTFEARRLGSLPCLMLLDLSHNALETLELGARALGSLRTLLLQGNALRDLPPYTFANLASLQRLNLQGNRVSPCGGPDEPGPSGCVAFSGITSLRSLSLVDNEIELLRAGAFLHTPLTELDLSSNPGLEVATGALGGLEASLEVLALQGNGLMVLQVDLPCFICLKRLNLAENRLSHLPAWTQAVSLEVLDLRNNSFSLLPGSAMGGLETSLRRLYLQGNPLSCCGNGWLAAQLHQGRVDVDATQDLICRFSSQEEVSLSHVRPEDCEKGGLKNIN

For the molecule `CCCCc1nc(Cl)c(CO)n1Cc1ccc(-c2ccccc2-c2nn[nH]n2)cc1` [losartan], in [1], the “muscle pathology and fibrosis” value was “effective in improving muscle pathology and reducing fibrosis”.
Take “GC1008: human analog of 1D11; pan-TGFβ antibody”: in data set [2], the “Exposure: DN Cmax” value was “DN Cmax ~(350 ng/mL)mg (ng/mL)mg” and the “Exposure: Half life” value is “Half life: 21.7 d”. Moreover, the “previously reported adverse events” value in the data set on human patients was “leukocytosis (grade 3), fatigue (grade 3), hypoxia (grade 3), asystole (grade 5), leukopenia (grade 1), recurrent, transient, tender erythematous, nodular skin lesions, suppurative dermatitis, and herpes zoster”.
In the case of `Cc1ccc(C(=O)Nc2ccc(S(=O)(=O)O)c3cc(S(=O)(=O)O)cc(S(=O)(=O)O)c23)cc1NC(=O)c1cccc(NC(=O)Nc2cccc(C(=O)Nc3cc(C(=O)Nc4ccc(S(=O)(=O)O)c5cc(S(=O)(=O)O)cc(S(=O)(=O)O)c45)ccc3C)c2)c1` [suramin], the “muscle pathology and fibrosis” value in data set [1] is “effective in improving muscle pathology and reducing fibrosis”.
For the molecule `c1ccc(-c2nn3c(c2-c2ccnc4cc(OCCN5CCOCC5)ccc24)CCC3)nc1` [LY2109761], the “TGFβ downstream tonic signaling” value with non-diseased rat BAL is reported as “inhibit TGFβ downstream tonic signaling”.

B1: Ab6-mIgG1: chimeric antibody with the human V domains of Ab6 fused to mouse IgG1/kappa constant domains (protein)
heavy chain: EVQLVESGGGLVQPGGSLRLSCTASGFTFSSFSMDWVRQAPGKGLEWVSYISPSADTIYYADSVKGRFTISRDNAKNTLYLQMNSLRAEDTAVYYCARGVLDYGDMLMPWGQGTLVTVSS
light chain: DIQMTQSPSSLSASVGDRVTITCQASQDITNYLNWYQQKPGKAPKLLIYDASNLETGVPSRFSGSGSGTDFTFTISSLQPEDIATYYCQQADNHPPWTFGGGTKVEIK
Regarding B1, in data set [3], the “phospho-Smad3 staining at tumor vascular endothelium (IHC)” value was “much diminished”.

B2: Ab17: monoclonal antibody; VH SEQ ID NO: 248, VL SEQ ID NO: 241 (antibody, V domains shown)
VH: EVQLLESGGGVVQPGGSLRLSCAASGFTFSSFAMTWVRQAPGKGLEWVSAISGSGAATYFADSVKGRFTISRDNSKNTLYLQMNSLRAEDTAVYYCARVSSGHWDFDYWGQGTLVTVSS
VL: DIQLTQSPSSLSASVGDRVTITCRASQSISSYLNWYQQKPGKAPKLLIYAASNLQSGVPSRFSGSGSGTDFTLTISSLQPEDFATYYCQQTYTVPLTFGGGTKVEIK
Regarding B2, the “(E) hGARP, Cell-associated proTGFb1 (KD)” value in [4] is reported as 8.62E−09. The “(F) hLRRC33, Cell-associated proTGFb1 (KD)” value in data set [5] was found to be 6.58E−10. The “(B) hLTBP1, Matrix-associated proTGFb1 (KD)” value in [6] amounted to 1.74E−10. In addition, the “(C) hLTBP3, Matrix-associated proTGFb1 (KD)” value in [7] is 2.08E−10. The Kd in data set [8] turned out to be 4.64 nM; in [9], 0.191 nM. Besides, the “(H) G/D (fold bias)” value in data set [8] is 24.288 fold.

B3: Ab18: monoclonal antibody; VH SEQ ID NO: 249, VL SEQ ID NO: 241 (antibody, V domains shown)
VH: QVQLVESGGGVVQPGRSLRLSCAASGFTFSDYAMVWVRQAPGKGLEWVSAISGSGAATYFADSVKGRFTISRDNSKNTLYLQMNSLRAEDTAVYYCATVSSGHWDFDYWGQGTLVTVSS
VL: DIQLTQSPSSLSASVGDRVTITCRASQSISSYLNWYQQKPGKAPKLLIYAASNLQSGVPSRFSGSGSGTDFTLTISSLQPEDFATYYCQQTYTVPLTFGGGTKVEIK
Turning to B3, in data set [4], the “(E) hGARP, Cell-associated proTGFb1 (KD)” value was 1.15E−08. For the same molecule, in data set [5], the “(F) hLRRC33, Cell-associated proTGFb1 (KD)” value is 1.02E−09. Also, the “(B) hLTBP1, Matrix-associated proTGFb1 (KD)” value in data set [6] turned out to be 3.12E−10. Further, in [7], the “(C) hLTBP3, Matrix-associated proTGFb1 (KD)” value was 2.57E−10. Besides, the Kd worked out at 6.26 nM in data set [8] and 0.284 nM in data set [9]. Besides, the “(H) G/D (fold bias)” value in [8] came out at 22.00 fold.

The values above are taken from patent US11130803B2, “Isoform-selective TGFβ1 inhibitors and use thereof” (Scholar Rock, Inc., priority 2018, dated 2021).
